Measured values from US20020164762A1 (BASF AKTIENGESELLSCHAFT, published 2002).
Numbering of substitutions follows the chain as printed. Names and notes keep the numbering of the source. One block for each binder: values may come before it.

Target: T1, N-His-tagged p20 subunit of human ICE (human, UniProt P29466 120-297)
T1 construct: Subunit released from N-His p30 by autoprocessing
T1 sequence: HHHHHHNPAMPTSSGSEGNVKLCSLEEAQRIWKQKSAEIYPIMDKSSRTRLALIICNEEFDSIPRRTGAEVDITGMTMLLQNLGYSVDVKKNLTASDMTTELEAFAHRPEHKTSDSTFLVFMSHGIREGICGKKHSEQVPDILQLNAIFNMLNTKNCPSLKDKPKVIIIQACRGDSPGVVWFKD
Assay: co-expression as N-His p30 in E. coli, nickel chelating column purification
Text: ICE (WT or modified) with an N-terminal polyhistidine tag was expressed in E. coli and purified using methodology described in Kamens et al. (1995) J. Biol. Chem., 270:15250-15256. Briefly, a DNA fragment encoding amino acid residues 120 to 404 of wild-type or D381E-modified ICE (p30) was cloned into an expression vector such that the p30-encoding fragment was fused in-frame at its N-terminus to DNA encoding six histidine residues. Following expression, the p30 fragment is correctly processed to p20 and p10 subunits, which associate to form mature, active N-His-tagged ICE proteins. The N-His ICE fusion proteins then were purified on a nickel chelating column (Porath, J. (1992) Protein Expression and Purification 2:263-281).

binding result: binds
B1: wild-type p10 subunit of human ICE (other)
chain: AIKKAHIEKDFIAFCSSTPDNVSWRHPTMGSVFIGRLIEHMQEYACSCDVEEIFRKVRFSFEQPDGRAQMPTTERVTLTRCFYLFPGH
notes: Subunit released from WT N-His p30 by autoprocessing; also called ICE 317-404

binding result: binds
B2: D381E-modified p10 subunit of human ICE (other)
chain: B1 chain with D65E
notes: Subunit released from D381E N-His p30 by autoprocessing; also called p10 D381E; ICE 317-404 D381E
